Consider 83 variants from the RNAGym collection of RNA variant scans (doi:10.1093/molbev/msab373).

B1: Azoarcus group I ribozyme (parent)
chain: GUGCCUUGCGCCGGGAAACCACGCAAGGGAUGGUGUCAAAUUCGGCGAAACCUAAGCGCCCGCCCGGGCGUAUGGCAACGCCGAGCCAAGCUUCGGCGCCUGCGCCGAUGAAGGUGUAGAGACUAGACGGCACCCACCUAAGGCAAACGCUAUGGUGAAGGCAUAGUCCAGGGAGUGGCGAAAGUCACACAAACCGG

In the series the parent is B1. As to the kind of experiment: reverse-splicing fitness (ratio to wild type); higher = more active; in vitro selection; Mg2+ level not given. Summed up: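 An in vitro group I ribozyme library with randomized positions was T7-transcribed and gel-purified. In triplicate, 10 pmol RNA in EPPS pH 7.5 was reacted with 50 pmoles of a 30-nt RNA substrate for 1 h at 37 °C across several added MgCl2 levels (1–48 mM), then stopped with EDTA. Products were reverse transcribed from a substrate-complementary primer, PCR-amplified and sequenced (HiSeq 4000). Fitness is a variant's read proportion after selection over that before, normalised to wild type.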
For the variant C82A A120G, the reverse-splicing fitness stood at 0.0258.
To A120C A145G C150G C169U belongs 0.108; to A120U C150A C169U U176A, 0.0178; to A111C A120U A145C C150A C169G, 0.0044.
In the case of C82A A111U A120U A145U C150U C169A U176G it was 0.00243; in that of C82U A111C C150U C169U U176G, 0.00713.
To C82U A111G A145U C169U U176C belongs 0.00988; to C82G A120U A145G C169U, 0.00713.
For the variant C82A A120U A145C C150G C169A, the reverse-splicing fitness stood at 0.00259.
To C82A C150A C169U U176A belongs 0.0152; to C82G A111C A120U C150U C169U U176G, 0.0024; to C82G A145C C150A C169G U176C, 0.0105.
To C82G A145C C150U belongs 0.0965.
In the case of C82U A111G A120U A145C C169G U176A it was 0.00218; in that of C82U A111G A120U A145C C169G U176G, 0.00126.
Consider C82G A111G A120U A145C U176C, for which the reverse-splicing fitness came to 0.0205.
In the case of C82G A111G A120U A145C U176A, the reverse-splicing fitness was 0.0131.
To C82G A111U A145C C150U C169A U176A belongs 0.0133; to C82U A111G A120U C150G, 0.00763; to C82A C150G C169A U176A, 0.0112.
In the case of A111U A120C C150A C169G U176A it was 0.0168; in that of C82A A111C A120G A145G, 0.0153.
To A111C A120G A145U C150U C169U U176A belongs 0.034.
On to C82U A111C A120C A145U C150A C169A U176C, for which the reverse-splicing fitness stood at 0.00844.
In the case of C82G A111U A145C C150A it was 0.0198; in that of C82U C150A C169U U176C, 0.0153.
In the case of C82A A111U A120C C150A U176G it was 0.00881; in that of C82G A120G A145G U176A, 0.0129.
To A111C A120U C150A C169G U176C belongs 0.00434.
As for C82U A111G A120G A145U C150G U176A, the reverse-splicing fitness worked out at 0.00535.
Consider C82G A111U A120C A145U C150G C169U U176A, for which the reverse-splicing fitness amounted to 0.0083.
In the case of C82A A120U A145U C150G it was 0.0166.
In the case of A111U A120U A145G C169G it was 0.0528; in that of C82A C169A U176C, 0.0166; in that of A111G A120G A145G C150U C169A U176A, 0.0303.
In the case of A111U A120U A145G C150A C169A it was 0.00554.
Regarding C82A A145U C150G C169U U176A, the reverse-splicing fitness came out at 0.00877.
In the case of C82U A111U A120G C150U C169G U176G it was 0.00456; in that of C82G A111G A120U A145U U176A, 0.0168; in that of C82U A120C A145G C150G C169A U176G, 0.00772.
Turning to C82G A120G A145U C150U C169G U176C, the reverse-splicing fitness is 0.0218.
Turning to C82G A120U A145U C150A C169U U176A, the reverse-splicing fitness stood at 0.00242.
In the case of A111G A145G C150A C169A U176G it was 0.00563; in that of C82A A111G A145U C169U U176G, 0.0055; in that of C82G A111C A120G A145U C150U C169G U176G, 0.00519.
In the case of C82U A111G A145G C150A C169A U176A it was 0.0187; in that of C150A U176G, 0.185; in that of C82U A111G A145G C150A C169U U176C, 0.0151.
To A111G A145U C150A C169A U176G belongs 0.00565; to C82A A111U A120C A145G U176A, 0.0187.
Consider C82G A111C A120G A145U C150G C169A, for which the reverse-splicing fitness worked out at 0.00965.
To C82G A111C A120G C169A U176C belongs 0.0206; to C82A A111C A120C C169U U176G, 0.00697; to C82A A145U C150A C169G U176C, 0.0131.
To C82U A120U A145U C150A C169G U176C belongs 0.00274; to C82G A111U A120G A145G C150A C169A U176G, 0.00669.
Consider C82A A111G A120G A145G C150U C169A U176G, for which the reverse-splicing fitness is 0.0063.
As for C82G A120U A145C C150A U176C, the reverse-splicing fitness came out at 0.00532.
In the case of C82A A111U A120G A145C C169A U176G it was 0.0048.
For C82U A111C A120C A145C C150U C169A U176G, the reverse-splicing fitness turned out to be 0.00658.
In the case of C82G A111G A120C C150A U176A it was 0.014; in that of C82U A120U A145U C150G C169G, 0.00248; in that of C82G A111G A120C A145C C150A C169U U176A, 0.0148.
To C82U A111C A120U A145U C150U C169A U176G belongs 0.00229.
In the case of C82U A120U C169U U176G it was 0.00164.
Take C82U A120U C150G C169A U176A: the reverse-splicing fitness is 0.00476.
In the case of C82U A111U A120G C150A C169G it was 0.0098; in that of C82G A111G A120G A145G C150A C169G, 0.0102.
For the variant C82U A111U A145U C150G C169A U176A, the reverse-splicing fitness was determined as 0.0112.
In the case of C82U A111U A120U A145C C150A U176A it was 0.00354.
As for C82U A120G A145U C150A C169U U176G, the reverse-splicing fitness worked out at 0.00395.
To C82U A145G C150U C169G belongs 0.0102; to C82U A111C A120C A145U C150G C169A U176A, 0.00888; to C82U A111G A120G C169G U176C, 0.0247.
In the case of A111U A120C A145C C150U U176A it was 0.0815; in that of C82U A111C A120U U176A, 0.00719.
To C82U A111U A120G C150G U176C belongs 0.00776.
For A111U A145C C150G, the reverse-splicing fitness turned out to be 0.426.
In the case of C82G A120C C150G C169A U176A, the reverse-splicing fitness amounted to 0.01.
To C82U A111C A120U A145U C169A U176A belongs 0.00299.
To C82A A120U A145G C150G C169U U176A belongs 0.00865; to C82A A111C A120C A145U C150U C169A U176G, 0.00742; to C82G A120U C150U C169G, 0.00527.
